Results on nine molecules are retold here after US20220204643A1 (published 2022).

Assay [1] has as its target T1, DEAD-box helicase 53 (human, UniProt Q86TM3 1-631).
T1 construct: also called DDX53

In assay [2] the target is T2, Vezatin, adherens junctions transmembrane protein (human, UniProt Q9HBM0 56-779 at identity 0.99), limits assumed).
T2 construct: also called VEZT
T2 chain: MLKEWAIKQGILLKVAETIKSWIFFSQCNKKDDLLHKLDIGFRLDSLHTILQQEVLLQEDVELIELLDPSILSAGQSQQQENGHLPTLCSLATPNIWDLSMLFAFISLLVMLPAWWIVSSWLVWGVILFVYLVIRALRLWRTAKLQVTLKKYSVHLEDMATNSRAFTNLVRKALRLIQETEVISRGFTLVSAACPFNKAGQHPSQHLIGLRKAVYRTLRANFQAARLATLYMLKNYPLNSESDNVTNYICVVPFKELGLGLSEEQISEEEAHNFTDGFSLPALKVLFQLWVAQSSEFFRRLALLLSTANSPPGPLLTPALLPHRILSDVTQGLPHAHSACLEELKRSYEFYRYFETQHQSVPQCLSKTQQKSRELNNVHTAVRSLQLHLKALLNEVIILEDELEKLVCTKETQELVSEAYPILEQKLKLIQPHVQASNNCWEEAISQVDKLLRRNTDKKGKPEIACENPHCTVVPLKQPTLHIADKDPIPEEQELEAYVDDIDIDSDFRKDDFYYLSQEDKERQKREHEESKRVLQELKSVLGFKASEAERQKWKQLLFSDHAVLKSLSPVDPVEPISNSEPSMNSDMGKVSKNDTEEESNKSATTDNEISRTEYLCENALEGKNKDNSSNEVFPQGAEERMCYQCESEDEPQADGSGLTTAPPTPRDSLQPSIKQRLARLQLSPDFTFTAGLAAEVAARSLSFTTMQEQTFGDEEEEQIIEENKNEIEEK

For assay [3], the target named is T3, Rna polymerase iii subunit g (human, UniProt O15318 1-223).
T3 construct: also called POLR3G
T3 sequence: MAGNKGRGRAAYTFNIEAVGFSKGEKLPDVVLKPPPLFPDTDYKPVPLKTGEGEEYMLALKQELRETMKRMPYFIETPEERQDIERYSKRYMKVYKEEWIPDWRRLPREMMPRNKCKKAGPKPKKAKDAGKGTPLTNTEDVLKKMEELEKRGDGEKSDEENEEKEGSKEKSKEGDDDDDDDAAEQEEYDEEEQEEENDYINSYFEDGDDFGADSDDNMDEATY

The target in assay [4] is CRK like proto-oncogene, adaptor protein, transcript variant 1 (human, UniProt P46109 1-303).
For assay [5], the target named is T4, nudix hydrolase 22, transcript variant 2 (human, UniProt Q9BRQ3 1-303).
T4 construct: also called NUDT22
T4 chain: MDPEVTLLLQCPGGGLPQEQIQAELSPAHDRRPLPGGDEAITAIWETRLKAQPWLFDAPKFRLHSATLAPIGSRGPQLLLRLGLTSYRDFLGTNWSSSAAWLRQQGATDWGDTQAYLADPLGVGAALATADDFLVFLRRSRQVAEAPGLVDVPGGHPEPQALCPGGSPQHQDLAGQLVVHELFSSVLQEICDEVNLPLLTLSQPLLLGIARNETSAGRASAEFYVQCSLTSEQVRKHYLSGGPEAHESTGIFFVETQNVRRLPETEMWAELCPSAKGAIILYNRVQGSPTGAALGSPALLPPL

For assay [6], the target named is T5, endosome associated trafficking regulator 1, transcript variant 2 (human, UniProt Q96C92 59-435).
T5 construct: on protein array; also called SDCCAG3
T5 chain: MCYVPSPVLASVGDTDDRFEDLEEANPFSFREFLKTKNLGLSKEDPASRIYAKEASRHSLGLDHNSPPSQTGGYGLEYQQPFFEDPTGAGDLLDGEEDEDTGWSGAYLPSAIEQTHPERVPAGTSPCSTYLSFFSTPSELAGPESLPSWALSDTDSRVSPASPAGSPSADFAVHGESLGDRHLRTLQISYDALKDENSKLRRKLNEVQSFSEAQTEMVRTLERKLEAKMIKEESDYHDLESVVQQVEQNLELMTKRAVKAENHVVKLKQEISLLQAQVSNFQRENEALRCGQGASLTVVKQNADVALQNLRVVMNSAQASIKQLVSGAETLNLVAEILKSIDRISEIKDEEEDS
In words: protein array.

The target in assay [7] is T6, charged multivesicular body protein 4B (human, UniProt Q9H444 2-224).
T6 construct: on protein array; also called CHMP4B
T6 sequence: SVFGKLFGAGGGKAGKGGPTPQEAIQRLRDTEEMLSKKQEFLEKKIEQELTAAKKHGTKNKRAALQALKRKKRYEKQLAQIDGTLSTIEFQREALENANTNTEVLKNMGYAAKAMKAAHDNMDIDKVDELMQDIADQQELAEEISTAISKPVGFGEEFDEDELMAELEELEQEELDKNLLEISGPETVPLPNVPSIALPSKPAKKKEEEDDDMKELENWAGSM
In words: protein array.

Assay [8] has as its target T7, F-box protein 2 (human, UniProt Q9UK22 1-296).
T7 construct: also called FBXO2
T7 sequence: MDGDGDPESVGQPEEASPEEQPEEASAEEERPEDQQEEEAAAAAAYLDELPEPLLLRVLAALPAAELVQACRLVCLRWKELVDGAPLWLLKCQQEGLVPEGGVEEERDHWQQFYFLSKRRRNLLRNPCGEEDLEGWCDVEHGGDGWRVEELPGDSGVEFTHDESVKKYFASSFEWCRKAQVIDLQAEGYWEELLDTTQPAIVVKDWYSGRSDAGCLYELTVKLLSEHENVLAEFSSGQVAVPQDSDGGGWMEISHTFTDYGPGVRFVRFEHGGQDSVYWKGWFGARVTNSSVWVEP

The target of assay [9] is T8, tubulin gamma 1 (human, UniProt P23258 1-451).
T8 construct: also called TUBG1

Assay [10] deals with T9, HEAT repeat containing 3, transcript variant 1 (human, UniProt Q7Z4Q2 1-680).
T9 construct: also called HEATR3
T9 sequence: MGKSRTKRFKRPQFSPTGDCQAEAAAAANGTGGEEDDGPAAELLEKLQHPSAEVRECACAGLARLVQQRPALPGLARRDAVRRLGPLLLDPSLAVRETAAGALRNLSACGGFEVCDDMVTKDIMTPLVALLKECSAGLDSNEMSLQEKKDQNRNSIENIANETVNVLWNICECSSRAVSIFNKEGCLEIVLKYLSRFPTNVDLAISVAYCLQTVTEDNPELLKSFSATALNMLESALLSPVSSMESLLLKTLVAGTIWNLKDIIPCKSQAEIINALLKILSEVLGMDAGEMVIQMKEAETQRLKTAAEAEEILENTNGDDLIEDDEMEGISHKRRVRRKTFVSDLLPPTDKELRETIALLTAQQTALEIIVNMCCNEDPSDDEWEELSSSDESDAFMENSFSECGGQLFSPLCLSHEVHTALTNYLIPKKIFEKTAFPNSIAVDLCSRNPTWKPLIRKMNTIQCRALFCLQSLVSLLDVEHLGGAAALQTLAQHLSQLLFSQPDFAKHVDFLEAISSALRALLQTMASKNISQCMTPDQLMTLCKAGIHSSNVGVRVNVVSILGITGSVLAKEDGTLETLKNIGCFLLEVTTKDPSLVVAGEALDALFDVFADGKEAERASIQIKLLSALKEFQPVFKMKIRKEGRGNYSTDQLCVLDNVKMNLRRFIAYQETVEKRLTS

The target in assay [11] is T10, sorting nexin 1, transcript variant 1 (human, UniProt Q13596 1-522).
T10 construct: also called SNX1

Assay [12] has as its target T11, grancalcin, transcript variant 4 (human, UniProt P28676 1-217).
T11 construct: also called GCA
T11 sequence: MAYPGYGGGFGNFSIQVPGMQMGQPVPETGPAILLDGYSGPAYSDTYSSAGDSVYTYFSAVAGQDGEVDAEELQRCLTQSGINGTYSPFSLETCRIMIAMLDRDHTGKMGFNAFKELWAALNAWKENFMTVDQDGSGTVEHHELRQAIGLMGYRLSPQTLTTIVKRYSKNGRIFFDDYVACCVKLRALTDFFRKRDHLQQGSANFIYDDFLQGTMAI

T1 sequence (Q86TM3 other isoform, or with tags, fused parts or gaps limits assumed): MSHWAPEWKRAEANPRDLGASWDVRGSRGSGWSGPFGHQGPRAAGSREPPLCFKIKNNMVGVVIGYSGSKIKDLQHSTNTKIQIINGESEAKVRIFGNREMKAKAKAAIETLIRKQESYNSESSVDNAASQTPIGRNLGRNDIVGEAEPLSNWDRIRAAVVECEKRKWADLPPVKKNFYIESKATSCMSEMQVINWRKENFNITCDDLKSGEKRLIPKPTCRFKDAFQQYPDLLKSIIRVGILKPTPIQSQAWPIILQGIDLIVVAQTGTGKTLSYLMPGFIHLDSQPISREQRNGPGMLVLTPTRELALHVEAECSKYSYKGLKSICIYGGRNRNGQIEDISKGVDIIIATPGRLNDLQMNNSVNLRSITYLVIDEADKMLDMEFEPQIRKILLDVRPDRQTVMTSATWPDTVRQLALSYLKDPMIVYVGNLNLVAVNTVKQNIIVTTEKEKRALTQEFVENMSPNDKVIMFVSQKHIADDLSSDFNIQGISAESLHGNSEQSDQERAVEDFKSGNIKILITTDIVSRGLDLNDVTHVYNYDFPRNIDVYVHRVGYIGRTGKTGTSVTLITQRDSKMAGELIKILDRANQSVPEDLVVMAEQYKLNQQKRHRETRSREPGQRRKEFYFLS
T8 sequence (P23258 whole entry): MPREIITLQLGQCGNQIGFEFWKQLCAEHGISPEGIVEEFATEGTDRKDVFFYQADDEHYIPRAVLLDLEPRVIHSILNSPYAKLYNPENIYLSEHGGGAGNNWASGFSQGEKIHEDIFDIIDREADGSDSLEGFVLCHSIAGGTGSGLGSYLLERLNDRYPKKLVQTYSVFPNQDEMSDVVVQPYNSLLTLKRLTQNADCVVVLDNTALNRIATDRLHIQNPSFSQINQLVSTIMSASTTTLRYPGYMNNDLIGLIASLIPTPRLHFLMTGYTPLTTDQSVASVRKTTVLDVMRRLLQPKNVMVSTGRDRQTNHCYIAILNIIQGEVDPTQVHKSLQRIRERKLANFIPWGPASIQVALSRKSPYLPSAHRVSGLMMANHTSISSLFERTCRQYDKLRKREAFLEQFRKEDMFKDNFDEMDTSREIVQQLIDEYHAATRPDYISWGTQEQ
T10 sequence (Q13596 whole entry, change not shown): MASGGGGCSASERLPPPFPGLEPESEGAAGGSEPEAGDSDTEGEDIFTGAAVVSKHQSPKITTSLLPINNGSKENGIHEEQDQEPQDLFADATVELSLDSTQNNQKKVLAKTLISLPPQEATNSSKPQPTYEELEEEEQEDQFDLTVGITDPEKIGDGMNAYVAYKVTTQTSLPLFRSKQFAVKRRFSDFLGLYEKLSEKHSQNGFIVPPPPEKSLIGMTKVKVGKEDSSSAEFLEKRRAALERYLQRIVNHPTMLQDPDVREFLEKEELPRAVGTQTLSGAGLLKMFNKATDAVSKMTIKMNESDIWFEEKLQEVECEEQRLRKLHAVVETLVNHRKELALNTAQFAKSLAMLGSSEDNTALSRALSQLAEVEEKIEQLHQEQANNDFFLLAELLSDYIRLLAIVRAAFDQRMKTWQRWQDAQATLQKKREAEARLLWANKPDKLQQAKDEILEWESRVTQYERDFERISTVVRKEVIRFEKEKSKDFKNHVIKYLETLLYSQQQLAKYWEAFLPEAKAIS
CRK like proto-oncogene, adaptor protein, transcript variant 1, sequence (P46109 whole entry, change not shown): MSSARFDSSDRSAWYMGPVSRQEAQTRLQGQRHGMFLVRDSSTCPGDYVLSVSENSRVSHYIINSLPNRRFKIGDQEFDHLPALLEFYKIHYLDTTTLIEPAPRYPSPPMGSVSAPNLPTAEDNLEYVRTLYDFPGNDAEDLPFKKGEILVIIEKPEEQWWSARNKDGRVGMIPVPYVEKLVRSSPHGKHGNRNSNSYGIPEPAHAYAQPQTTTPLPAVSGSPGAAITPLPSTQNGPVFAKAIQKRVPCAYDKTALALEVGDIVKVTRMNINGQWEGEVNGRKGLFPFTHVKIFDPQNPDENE

B1: TOVA1005 (antibody, V domains shown)
VH: QITLKESGPTLVKPTQTLTLTCTFSGFSLSTNGVGVGWIRQPPGKALEWLALINWDDDKRYSPSLKSRLTITKDTSKNQVVLTMTNLDPVDTATYYCVHARDDYGDSAWSTGPVWGQGTLVTVSS
VL: DFLLTQPHSVSESPGKTVTISCTRSSGSIASNYVQWYQQRPGSSPSTVIYEDHQRPSGVPGRFSGSIDSSSNSASLTISGLKTEDEADYFCQSSDSNNHVVFGGGTKLTVLG
For B1, the binding result in [1] and in assay [2] was “binds” each time.

B2: TPAN1003 (antibody, V domains shown)
VH: QVQLVQSGAEVKKPGASVKISCQAFGYNFIDNAIHWVRQAPGQRPEWMGWINAGNGNTRYSQNFQGRVTITKVTSASTAYMEMSRLKSEDTAVYFCARSSKWTDWHFDYWGQGTLVTVSS
VL: EIVLTQSPGTLSLSPGETATLSCRASQSVANNYLAWHQQKPGQAPRLLIYGASKRAAGIPDRFSGSGSGTEFTLTISRLEPEDCAVYYCQEYVKSPGFAFGPGTRVDIKR
In the case of B2, in [3], the binding result is recorded as “binds”.

B3: TPAN1006 (antibody, V domains shown)
VH: QVQLVQSGAEVKKPGASVKLSCKPSGYTFSSYYIHWLRQAPGQGLEWMGIINPSGGYTSSAQKFQGRVTMTRDTSTSTIYMELSSLRAEDTAVYYCARRGEVGTMVRVFRKPFDYWGQGTLVTVSS
VL: QSVLTQPPSVSGAPGQRVTISCTGSSSNIGAQYDVHWYKVIPGTAPKLLIYGNDNRPSGVPDRFSGSKSGTSASLAITGLQSEDEADYYCQSNDISLSGSVVFGGGTKLTVLG
For the molecule B3, the binding result in assay [4] is “binds”.

B4: TOVA1007 (antibody, V domains shown)
VH: PVQLQESGPGLVNPSQTLSLTCTVSGGSISSGGYCWSWVRQHPGKGLEWIGCIYYIGTTYYMRSLKSRLIISIDTSKNQFSLKLTSVTAADSAVYYCARGGELLGGFGYSGMDVWGQGTTVTVSS
VL: not shown
On to B4, for which the binding result in assay [5] is on record as “binds”.

B5: TBRE1034 (antibody, V domains shown)
VH: QVQLVESGGGLVEPGGSLRLSCAASGFTFSDYYMSWIRQAPGKRLEWISHMSSGGNRRHYADSVRGRFTISRDNAKNSLYLQMNSMRADDTAVYYCARDKRSGMTSDRRIDYWGQGTRVTVSS
VL: DIQMTQSPSSLSASVGDRITITCRASQSVGTYLSWFQQKPGKAPKLLIYAASSLQSGVPSRFSGSGSGTDFTLTISSLQPEDFATYFCQQSYSVPPWTFGQGTKVEIKR
notes: VH/VL only
Take B5: the binding result in assay [6] and in [7] was “binds” in each case.

B6: TPAN1007 (antibody, V domains shown)
VH: PVQLVQSGAEVKKPGESLKISCQGSGYNFSRYWIGWVRQMPGKGLEWMGVVFPGDSDIRYSLSFQGHITIYADNSISTAYLQWSSLKASDTAIYYCATTSTMPMPTRGRDWFDPWGQGTLVTVSS
VL: PSVLTQPPSVSGAPGQRVTISCTGSSSNIGAGYDVHWYQQLPGTAPKLLIYANTNRPSGVPDRFSGSKSGTSASLAITGLQAEDEADYYCQSYDNSLSGGVFGGGTKLTVLG
In the case of B6, the binding result in [8] and in assay [9] was “binds” in each case.

B7: TOVA1004 (antibody, V domains shown)
VH: EVQLVESGGGLVKPGGSLRLSCAASGFTFSSYSMNWVRQAPGKGLEWVSSISSSSSYIYYADSVKGRFTISRDNAKNSLYLQMNSLRAEDTAVYYCARDRGVVVVAATPYYYGMDVWGQGTTVTVSS
VL: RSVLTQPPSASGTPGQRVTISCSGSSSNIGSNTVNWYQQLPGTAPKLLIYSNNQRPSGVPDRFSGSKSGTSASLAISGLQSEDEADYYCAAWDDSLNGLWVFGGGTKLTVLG
On to B7, for which, in assay [10], the binding result is reported as “binds”.

B8: TPAN1004 (antibody, V domains shown)
VH: QIQLVQSGAEVKKPGASVKVSCKTSGYTFTHYGVAWVRQAPGQGPEWMGWISPYNGNIEYGQKFQGRVTMTTDTSTNTAYMELRSLRYDDTAVYYCARDLDEINSSWLDPWGQGTLIIVSP
VL: EIVLTQSPATLSLSPGERATLSCRASQSVSSNYLAWYQQKPGQAPRLLIHGASSRATGFPDRFSGSGSGTDFTLTINRLEPEDFAVYYCQQYGTSPQTFGQGTKVEIKR
For B8, the binding result in [11] is recorded as “binds”.

B9: TPAN1001 (antibody, V domains shown)
VH: QVQLVQSGAEVKKPGSSVKVSCKASRGTFSNHAVSWVRQAPGQGLEWVGGIIPVFGPPNYAQKFRGRVTITADRSTNTAYMELNSLRSEDTAVYYCARTQWGTDVEATNPYYYFMDVWGKGTTVTVSS
VL: EIVLTQSPGTLSLSPGHRATLSCRASQDVASTYLAWYQQKPGQAPRLLIYGASSRATGIPDRFSGSGSGTDFTLTISRLEPEDFAVFYCQYYGGSPGFTFGPGTKVDFKR
For B9, the binding result in [12] is reported as “binds”.
